{
  "source": "patent US20140363428A1",
  "about": "(Chugai, published 2014)",
  "data": [
    {"molecular_target": "T1, soluble human FcRn (human, UniProt P55899 24-297; P61769 21-119)", "T1 construct": "Heterodimer of FcRn alpha chain and beta2-microglobulin; also called hFcRn", "T1 sequence (P55899 24-297 limits assumed, chain 1 of 2)": "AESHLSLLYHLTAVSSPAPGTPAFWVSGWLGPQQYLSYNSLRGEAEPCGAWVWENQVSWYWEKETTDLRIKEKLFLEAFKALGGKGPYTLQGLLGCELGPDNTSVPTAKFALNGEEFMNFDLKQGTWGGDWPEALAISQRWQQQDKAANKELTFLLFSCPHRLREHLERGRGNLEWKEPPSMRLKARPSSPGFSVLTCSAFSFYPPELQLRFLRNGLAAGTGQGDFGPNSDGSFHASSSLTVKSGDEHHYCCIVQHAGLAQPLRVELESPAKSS", "T1 sequence (P61769 21-119 limits assumed, chain 2 of 2)": "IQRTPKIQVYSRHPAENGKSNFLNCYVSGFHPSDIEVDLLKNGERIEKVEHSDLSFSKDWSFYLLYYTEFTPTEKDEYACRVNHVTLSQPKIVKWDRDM", "test": "SPR (Biacore T100), antibody captured by protein L, hFcRn as analyte, pH 7.0, 25 C;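 also: KD calculated from fitted association and dissociation rate constants of the sensorgrams, protein L amine-coupled to the sensor chip, sodium phosphate running buffer with NaCl and Tween20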", "units": {"Kd": "nM"}, "values": [
      {"binder": "IgG1-F1204 (antibody, EU numbering; copies: 2 + 2) heavy: QVQLQESGPGLVKPSETLSLTCAVSGHSISHDHAWSWVRQPPGEGLEWIGFISYSGITNYNPSLQGRVTISRDNSKNTLYLQMNSLRAEDTAVYYCARSLARTTAMDYWGEGTLVTVSSASTKGPSVFPLAPSSKSTSGGTAALGCLVKDYFPEPVTVSWNSGALTSGVHTFPAVLQSSGLYSLSSVVTVPSSSLGTQTYICNVNHKPSNTKVDKKVEPKSCDKTHTCPPCPAPELLGGPSVFLFPPKPKDTLYITRQPEVTCVVVDVSHEDPEVKFNWYVDGVEVHNAKTKPREEQYNSTYRVVSVLTVLHQDWLNGKEYKCKVSNKALPAPIEKTISKAKGQPREPQVYTLPPSRDELTKNQVSLTCLVKGFYPSDIAVEWESNGQPENNYKTTPPVLDSDGSFFLYSKLTVDKSRWQQGNVFSCSVMHEALHYHVTRKELSLSP light: not shown", "Kd": 120},
      {"binder": "IgG1-F1205 (antibody, EU numbering; copies: 2 + 2) heavy: QVQLQESGPGLVKPSETLSLTCAVSGHSISHDHAWSWVRQPPGEGLEWIGFISYSGITNYNPSLQGRVTISRDNSKNTLYLQMNSLRAEDTAVYYCARSLARTTAMDYWGEGTLVTVSSASTKGPSVFPLAPSSKSTSGGTAALGCLVKDYFPEPVTVSWNSGALTSGVHTFPAVLQSSGLYSLSSVVTVPSSSLGTQTYICNVNHKPSNTKVDKKVEPKSCDKTHTCPPCPAPELLGGPSVFLFPPKPKDVLYISRQPEVTCVVVDVSHEDPEVKFNWYVDGVEVHNAKTKPREEQYNSTYRVVSVLTVLHQDWLNGKEYKCKVSNKALPAPIEKTISKAKGQPREPQVYTLPPSRDELTKNQVSLTCLVKGFYPSDIAVEWESNGQPENNYKTTPPVLDSDGSFFLYSKLTVDKSRWQQGNVFSCSVMHEALHYHVTRKELSLSP light: not shown", "Kd": 200},
      {"binder": "IgG1-F1206 (antibody, EU numbering; copies: 2 + 2) heavy: QVQLQESGPGLVKPSETLSLTCAVSGHSISHDHAWSWVRQPPGEGLEWIGFISYSGITNYNPSLQGRVTISRDNSKNTLYLQMNSLRAEDTAVYYCARSLARTTAMDYWGEGTLVTVSSASTKGPSVFPLAPSSKSTSGGTAALGCLVKDYFPEPVTVSWNSGALTSGVHTFPAVLQSSGLYSLSSVVTVPSSSLGTQTYICNVNHKPSNTKVDKKVEPKSCDKTHTCPPCPAPELLGGPSVFLFPPKPKDVLYITRQPEVTCVVVDVSHEDPEVKFNWYVDGVEVHNAKTKPREEQYNSTYRVVSVLTVLHQDWLNGKEYKCKVSNKALPAPIEKTISKAKGQPREPQVYTLPPSRDELTKNQVSLTCLVKGFYPSDIAVEWESNGQPENNYKTTPPVLDSDGSFFLYSKLTVDKSRWQQGNVFSCSVMHEALHYHVTRKELSLSP light: not shown", "Kd": 170},
      {"binder": "IgG1-F1207 (antibody, EU numbering; copies: 2 + 2) heavy: QVQLQESGPGLVKPSETLSLTCAVSGHSISHDHAWSWVRQPPGEGLEWIGFISYSGITNYNPSLQGRVTISRDNSKNTLYLQMNSLRAEDTAVYYCARSLARTTAMDYWGEGTLVTVSSASTKGPSVFPLAPSSKSTSGGTAALGCLVKDYFPEPVTVSWNSGALTSGVHTFPAVLQSSGLYSLSSVVTVPSSSLGTQTYICNVNHKPSNTKVDKKVEPKSCDKTHTCPPCPAPELLGGPSVFLFPPKPKDTLMISRTPEVTCVVVDVSHEDPEVKFNWYVDGVEVHNAKTKPREEQYNSTYRVVSVLTVLHQDWLNGKEYKCKVSNKALPAPEEKTISKAKGQPREPQVYTLPPSRDELTKNQVSLTCLVKGFYPSDIAVEWESNGQPENNYKTTPPVLDSDGSFFLYSKLTVDKSRWQQGNVFSCSVLHEALHSHYTQKSLSLSP light: not shown", "Kd": 1100},
      {"binder": "IgG1-F1208 (antibody, EU numbering; copies: 2 + 2) heavy: QVQLQESGPGLVKPSETLSLTCAVSGHSISHDHAWSWVRQPPGEGLEWIGFISYSGITNYNPSLQGRVTISRDNSKNTLYLQMNSLRAEDTAVYYCARSLARTTAMDYWGEGTLVTVSSASTKGPSVFPLAPSSKSTSGGTAALGCLVKDYFPEPVTVSWNSGALTSGVHTFPAVLQSSGLYSLSSVVTVPSSSLGTQTYICNVNHKPSNTKVDKKVEPKSCDKTHTCPPCPAPELLGGPSVFLFPPKPKDTAYISRTPEVTCVVVDVSHEDPEVKFNWYVDGVEVHNAKTKPREEQYNSTYRVVSVLTVLHQDWLNGKEYKCKVSNKALPAPIEKTISKAKGQPREPQVYTLPPSRDELTKNQVSLTCLVKGFYPSDIAVEWESNGQPENNYKTTPPVLDSDGSFFLYSKLTVDKSRWQQGNVFSCSVMHEALHYHVTQKSLSLSP light: not shown", "Kd": 570},
      {"binder": "IgG1-F1211 (antibody, EU numbering; copies: 2 + 2) heavy: QVQLQESGPGLVKPSETLSLTCAVSGHSISHDHAWSWVRQPPGEGLEWIGFISYSGITNYNPSLQGRVTISRDNSKNTLYLQMNSLRAEDTAVYYCARSLARTTAMDYWGEGTLVTVSSASTKGPSVFPLAPSSKSTSGGTAALGCLVKDYFPEPVTVSWNSGALTSGVHTFPAVLQSSGLYSLSSVVTVPSSSLGTQTYICNVNHKPSNTKVDKKVEPKSCDKTHTCPPCPAPELLGGPSVFLFPPKPKDTHYISRTPEVTCVVVDVSHEDPEVKFNWYVDGVEVHNAKTKPREEQYNSTYRVVSVLTVLHQDWLNGKEYKCKVSNKALPAPIEKTISKAKGQPREPQVYTLPPSRDELTKNQVSLTCLVKGFYPSDIAVEWESNGQPENNYKTTPPVLDSDGSFFLYSKLTVDKSRWQQGNVFSCSVMHEALHYHVTQKSLSLSP light: not shown", "Kd": 1200},
      {"binder": "IgG1-F1216 (antibody, EU numbering; copies: 2 + 2) heavy: QVQLQESGPGLVKPSETLSLTCAVSGHSISHDHAWSWVRQPPGEGLEWIGFISYSGITNYNPSLQGRVTISRDNSKNTLYLQMNSLRAEDTAVYYCARSLARTTAMDYWGEGTLVTVSSASTKGPSVFPLAPSSKSTSGGTAALGCLVKDYFPEPVTVSWNSGALTSGVHTFPAVLQSSGLYSLSSVVTVPSSSLGTQTYICNVNHKPSNTKVDKKVEPKSCDKTHTCPPCPAPELLGGPSVFLFPPKPKDTSYISRTPEVTCVVVDVSHEDPEVKFNWYVDGVEVHNAKTKPREEQYNSTYRVVSVLTVLHQDWLNGKEYKCKVSNKALPAPIEKTISKAKGQPREPQVYTLPPSRDELTKNQVSLTCLVKGFYPSDIAVEWESNGQPENNYKTTPPVLDSDGSFFLYSKLTVDKSRWQQGNVFSCSVMHEALHYHVTQKSLSLSP light: not shown", "Kd": 1200},
      {"binder": "IgG1-F1217 (antibody, EU numbering; copies: 2 + 2) heavy: QVQLQESGPGLVKPSETLSLTCAVSGHSISHDHAWSWVRQPPGEGLEWIGFISYSGITNYNPSLQGRVTISRDNSKNTLYLQMNSLRAEDTAVYYCARSLARTTAMDYWGEGTLVTVSSASTKGPSVFPLAPSSKSTSGGTAALGCLVKDYFPEPVTVSWNSGALTSGVHTFPAVLQSSGLYSLSSVVTVPSSSLGTQTYICNVNHKPSNTKVDKKVEPKSCDKTHTCPPCPAPELLGGPSVFLFPPKPKDTTYISRTPEVTCVVVDVSHEDPEVKFNWYVDGVEVHNAKTKPREEQYNSTYRVVSVLTVLHQDWLNGKEYKCKVSNKALPAPIEKTISKAKGQPREPQVYTLPPSRDELTKNQVSLTCLVKGFYPSDIAVEWESNGQPENNYKTTPPVLDSDGSFFLYSKLTVDKSRWQQGNVFSCSVMHEALHYHVTQKSLSLSP light: not shown", "Kd": 1100},
      {"binder": "IgG1-F1218 (antibody, EU numbering; copies: 2 + 2) heavy: QVQLQESGPGLVKPSETLSLTCAVSGHSISHDHAWSWVRQPPGEGLEWIGFISYSGITNYNPSLQGRVTISRDNSKNTLYLQMNSLRAEDTAVYYCARSLARTTAMDYWGEGTLVTVSSASTKGPSVFPLAPSSKSTSGGTAALGCLVKDYFPEPVTVSWNSGALTSGVHTFPAVLQSSGLYSLSSVVTVPSSSLGTQTYICNVNHKPSNTKVDKKVEPKSCDKTHTCPPCPAPELLGGPSVFLFPPKPKDTVYISRTPEVTCVVVDVSHEDPEVKFNWYVDGVEVHNAKTKPREEQYNSTYRVVSVLTVLHQDWLNGKEYKCKVSNKALPAPIEKTISKAKGQPREPQVYTLPPSRDELTKNQVSLTCLVKGFYPSDIAVEWESNGQPENNYKTTPPVLDSDGSFFLYSKLTVDKSRWQQGNVFSCSVMHEALHYHVTQKSLSLSP light: not shown", "Kd": 250},
      {"binder": "IgG1-F1229 (antibody, EU numbering; copies: 2 + 2) heavy: QVQLQESGPGLVKPSETLSLTCAVSGHSISHDHAWSWVRQPPGEGLEWIGFISYSGITNYNPSLQGRVTISRDNSKNTLYLQMNSLRAEDTAVYYCARSLARTTAMDYWGEGTLVTVSSASTKGPSVFPLAPSSKSTSGGTAALGCLVKDYFPEPVTVSWNSGALTSGVHTFPAVLQSSGLYSLSSVVTVPSSSLGTQTYICNVNHKPSNTKVDKKVEPKSCDKTHTCPPCPAPELLGGPSVFLFPPKPKDTLYVSRTPEVTCVVVDVSHEDPEVKFNWYVDGVEVHNAKTKPREEQYNSTYRVVSVLTVLHQDWLNGKEYKCKVSNKALPAPIEKTISKAKGQPREPQVYTLPPSRDELTKNQVSLTCLVKGFYPSDIAVEWESNGQPENNYKTTPPVLDSDGSFFLYSKLTVDKSRWQQGNVFSCSVMHEALHYHVTQKSLSLSP light: not shown", "Kd": 2800},
      {"binder": "IgG1-F1230 (antibody, EU numbering; copies: 2 + 2) heavy: QVQLQESGPGLVKPSETLSLTCAVSGHSISHDHAWSWVRQPPGEGLEWIGFISYSGITNYNPSLQGRVTISRDNSKNTLYLQMNSLRAEDTAVYYCARSLARTTAMDYWGEGTLVTVSSASTKGPSVFPLAPSSKSTSGGTAALGCLVKDYFPEPVTVSWNSGALTSGVHTFPAVLQSSGLYSLSSVVTVPSSSLGTQTYICNVNHKPSNTKVDKKVEPKSCDKTHTCPPCPAPELLGGPSVFLFPPKPKDTLYISRTPEVTCVVVDVSHEDPEVKFNWYVDGVEVHNAKTKPREEQYNSTYRVVSVLTVLHQDWLNGKEYKCKVSNKALPAPIEKTISKAKGQPREPQVYTLPPSRDELTKNQVSLTCLVKGFYPSDIAVEWESNGQPENNYKTTPPVLDSDGSFFLYSKLTVDKSRWQQGNVFSCSVMHEALHYHVTRKDLSLSP light: not shown", "Kd": 110},
      {"binder": "IgG1-F1231 (antibody, EU numbering; copies: 2 + 2) heavy: QVQLQESGPGLVKPSETLSLTCAVSGHSISHDHAWSWVRQPPGEGLEWIGFISYSGITNYNPSLQGRVTISRDNSKNTLYLQMNSLRAEDTAVYYCARSLARTTAMDYWGEGTLVTVSSASTKGPSVFPLAPSSKSTSGGTAALGCLVKDYFPEPVTVSWNSGALTSGVHTFPAVLQSSGLYSLSSVVTVPSSSLGTQTYICNVNHKPSNTKVDKKVEPKSCDKTHTCPPCPAPELLGGPSVFLFPPKPKDTLYISRTPEVTCVVVDVSHEDPEVKFNWYVDGVEVHNAKTKPREEQYNSTYRVVSVLTVLHQDWLNGKEYKCKVSNKALPAPIEKTISKAKGQPREPQVYTLPPSRDELTKNQVSLTCLVKGFYPSDIAVEWESNGQPENNYKTTPPVLDSDGSFFLYSKLTVDKSRWQQGNVFSCSVMHEALHYHVTKKELSLSP light: not shown", "Kd": 97}
    ]}
  ]
}
